Measured values reported in patent US20090142365A1 (HEALTH RESEARCH, published 2009).

Biological target: Luciferase (UniProt P08659 1-550 = luciferase, limits assumed)
Assay: pull-down: 1:1 mix, immunoprecipitation with anti-OVA antibody, western blot with anti-luciferase antibody
Method: Lanes with no chaperone (1st lane) were included as controls. […] In the bottom panel, WB was performed with anti-luciferase to confirm that OVA pull-down was successful.
After SDS-PAGE (10%) electrophoresis, western blot analysis was performed using anti-luciferase (Promega, Madison, Wis.) or anti-gp100 antibody (Santa Cruz Biotechnology, Santa Cruz, Calif.).

Chain of Luciferase (P08659 whole entry): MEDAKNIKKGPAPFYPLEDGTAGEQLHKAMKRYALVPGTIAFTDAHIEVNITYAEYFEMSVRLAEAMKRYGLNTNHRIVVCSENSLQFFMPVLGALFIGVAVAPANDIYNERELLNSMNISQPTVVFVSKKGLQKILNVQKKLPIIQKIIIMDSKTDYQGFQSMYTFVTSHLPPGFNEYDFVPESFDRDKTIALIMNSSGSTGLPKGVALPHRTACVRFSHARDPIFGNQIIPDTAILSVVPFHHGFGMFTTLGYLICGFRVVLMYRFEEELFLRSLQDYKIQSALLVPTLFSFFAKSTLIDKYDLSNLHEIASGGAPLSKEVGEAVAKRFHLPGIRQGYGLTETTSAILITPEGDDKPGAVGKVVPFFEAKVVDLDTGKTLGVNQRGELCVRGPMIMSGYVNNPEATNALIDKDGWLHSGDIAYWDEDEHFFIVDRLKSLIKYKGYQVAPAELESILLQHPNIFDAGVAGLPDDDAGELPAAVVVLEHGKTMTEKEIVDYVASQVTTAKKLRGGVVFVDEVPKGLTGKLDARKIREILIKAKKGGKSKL

B1: Ovalbumin (other, UniProt P01012 2-386, looked up)
chain: GSIGAASMEFCFDVFKELKVHHANENIFYCPIAIMSALAMVYLGAKDSTRTQINKVVRFDKLPGFGDSIEAQCGTSVNVHSSLRDILNQITKPNDVYSFSLASRLYAEERYPILPEYLQCVKELYRGGLEPINFQTAADQARELINSWVESQTNGIIRNVLQPSSVDSQTAMVLVNAIVFKGLWEKAFKDEDTQAMPFRVTEQESKPVQMMYQIGLFRVASMASEKMKILELPFASGTMSMLVLLPDEVSGLEQLESIINFEKLTEWTSSNVMEERKIKVYLPRMKMEEKYNLTSVLMAMGITDVFSSSANLSGISSAESLKISQAVHAAHAEINEAGREVVGSAEAGVDAASVSEEFRADHPFLFCIKHIATNAVLFFGRCVSP
notes: Negative control protein
B1: no binding.
